In patent US20220112249A1 (OXFORD UNIVERSITY INNOVATION, published 2022):

Molecular target: T1, fHbp V1.1 with PorA VR2 P1.16 loop in position 5 (P5) (Neisseria meningitidis, UniProt E6MV22 20-274)
T1 sequence: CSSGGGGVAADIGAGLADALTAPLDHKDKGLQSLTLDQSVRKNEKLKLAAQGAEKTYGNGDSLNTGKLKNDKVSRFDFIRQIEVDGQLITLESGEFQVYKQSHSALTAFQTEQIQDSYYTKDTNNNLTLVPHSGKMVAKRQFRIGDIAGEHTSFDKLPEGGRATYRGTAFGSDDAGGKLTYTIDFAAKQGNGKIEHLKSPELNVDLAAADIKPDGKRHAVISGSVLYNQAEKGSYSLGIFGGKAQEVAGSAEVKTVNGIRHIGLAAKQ
Assay: SPR (BIAcore), fHbp:PorA coupled to the chip, CFH (fH67) flowed over

B1: Complement Factor H (CFH) domains 6 and 7 (other)
chain: TLKPCDYPDIKHGGLYHENMRRPYFPVAVGKYYSYYCDEHFETPSGSYWDHIHCTQDGWSPAVPCLRKCYFPYLENGYNQNYGRKFVQGKSIDVACHPGYALPKAQTTVTCMENGWSPTPRCI
notes: domain: fH67 (CFH domains 6-7); also called fH67
binding result: no binding (tested: 0.5-32 nM)
